Consider 6 molecules from patent publication US20100227824A1 (SYMTHERA CANADA, published 2010).

What all share (assay): micro-array, phage-presented peptide on printed CK
Assay [1] deals with T1, GRO-β (CXCL2) (UniProt P19875 35-107).
T1 construct: Bought chemokine
T1 sequence (looked up): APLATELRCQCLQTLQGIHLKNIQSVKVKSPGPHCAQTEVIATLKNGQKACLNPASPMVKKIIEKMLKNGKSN
As to the method: (§1) (1) Printing: Chemokine (CK) solution (in water) was serially diluted with Print Reagent (GenTel BioSurfaces USA) to final concentrations of 50 μg and 25 μg/ml. BSA/BSA-Biotin control solutions (in water) were diluted with Print Reagent to 100 μg/ml. Amplified stock of M13 phage control (M13KEgIII Cloning Vector, New England Biolabs, Cat.No.E8101S) was stored in Tris Buffered Saline (TBS; pH7.5, 4° C.) and diluted with Print Reagent to the working titre (10^8 pfu/μl). An automated spotting robot (16 pin print tool, 0.4mm head; BioRobotics, UK) was used to print the CK/BSA control/M13 control, 5 repeats per sample (CK 25 μg/ml and 50 μg/ml; BSA 100 μg/ml; M13 20 μl), on PATH Protein Microarray Slides (GenTel, Prod.No.2-1005/-1025) at […], and 50-70% relative humidity. Printed micro-array slides were stored at Room Temperature (RT) or 4° C. for at least 24 h before use.
(§2) (2) Blocking: Block Buffer (500 μl/partition; PATHblock, GenTel, Prod.No.2-1014) was applied to the slide for 1 hour at room temp (RT). After removal of Block Buffer, the slide was air dried for 25 minutes;
(§3) (11) Analysis: Quantitative analysis of micro-array was performed by the SpotReader program of Niles Scientific (USA) and presented as Relative Fluorescence (RF) as a function of CK concentration. Micro-array readout (Cy3 fluorescence) was quantified to determine the relative binding affinities of a CBP for the CKs and by inference, the specificity of the CBP for binding to a CK.

The target in assay [2] is T2, Mig (CXCL9) (UniProt Q07325 23-125).
T2 construct: Bought chemokine
T2 sequence (looked up): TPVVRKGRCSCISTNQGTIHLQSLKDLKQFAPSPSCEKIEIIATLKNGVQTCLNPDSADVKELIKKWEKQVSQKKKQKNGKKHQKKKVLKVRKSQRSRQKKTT
As to the method: as §1, §2, §3

In assay [3] the target is T3, Eotaxin (CCL11) (UniProt P51671 24-97).
T3 construct: Bought chemokine
As to the method: as §1, §2, §3

The target of assay [4] is T4, MCP-4 (CCL13) (UniProt Q99616 24-98).
T4 construct: Bought chemokine
The procedure:
as §1, §2, §3

The target in assay [5] is T5, IL-8 (CXCL8) (UniProt P10145 28-99, limits assumed).
T5 construct: also called IL-8(72aa); IL-8(77aa)
T5 sequence (looked up): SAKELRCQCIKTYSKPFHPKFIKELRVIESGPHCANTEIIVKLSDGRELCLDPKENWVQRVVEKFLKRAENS
The procedure:
as §1, §2, §3

The target of assay [6] is T6, TECK (CCL25) (UniProt O15444 24-150).
T6 construct: Bought chemokine
T6 sequence (looked up): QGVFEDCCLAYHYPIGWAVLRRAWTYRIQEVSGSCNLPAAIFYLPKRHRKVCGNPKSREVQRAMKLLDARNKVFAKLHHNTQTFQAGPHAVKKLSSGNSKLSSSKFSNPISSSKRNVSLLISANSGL
As to the method: as §1, §2, §3

For assay [7], the target named is T7, BCA-1 (CXCL13) (UniProt O43927 23-109).
T7 construct: Bought chemokine
T7 sequence (looked up): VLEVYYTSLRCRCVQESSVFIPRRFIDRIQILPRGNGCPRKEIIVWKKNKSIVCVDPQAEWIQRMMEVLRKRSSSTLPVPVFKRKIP
The procedure: as §1, §2, §3

For assay [8], the target named is T8, IP-10 (CXCL10) (UniProt P02778 22-98).
T8 construct: Bought chemokine
T8 sequence (looked up): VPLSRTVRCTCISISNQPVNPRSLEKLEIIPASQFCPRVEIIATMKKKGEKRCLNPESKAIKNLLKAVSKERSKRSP
The procedure: as §1, §2, §3

Assay [9] concerns the target T9, RANTES (CCL5) (UniProt P13501 24-91).
T9 construct: Bought chemokine
T9 sequence (looked up): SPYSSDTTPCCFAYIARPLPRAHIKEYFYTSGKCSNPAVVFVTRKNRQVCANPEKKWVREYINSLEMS
The procedure:
as §1, §2, §3

The target of assay [10] is T10, Exodus-2 (CCL21) (UniProt O00585 24-134).
T10 construct: Bought chemokine
T10 sequence (looked up): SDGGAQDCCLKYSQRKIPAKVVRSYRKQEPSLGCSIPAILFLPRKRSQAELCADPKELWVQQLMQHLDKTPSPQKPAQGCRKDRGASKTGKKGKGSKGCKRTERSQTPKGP
As to the method: as §1, §2, §3

Assay [11] addresses T11, MCP-2 (CCL8) (UniProt P80075 24-99).
T11 construct: Bought chemokine
T11 sequence (looked up): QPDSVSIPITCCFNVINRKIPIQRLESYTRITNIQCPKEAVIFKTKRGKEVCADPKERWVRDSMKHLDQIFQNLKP
As to the method:
as §1, §2, §3

In assay [12] the target is T12, Lymphotactin (XCL-1) (UniProt P47992 23-114, limits assumed).
T12 construct: Bought chemokine
T12 sequence (looked up): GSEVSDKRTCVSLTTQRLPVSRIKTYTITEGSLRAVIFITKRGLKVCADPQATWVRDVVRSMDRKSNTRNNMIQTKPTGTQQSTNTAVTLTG
The procedure: as §1, §2, §3

The target of assay [13] is T13, MCP-1 (CCL2) (UniProt P13500 24-99).
T13 construct: Bought chemokine
As to the method:
as §1, §2, §3

For assay [14], the target named is T14, Eotaxin 3 (CCL26) (UniProt Q9Y258 24-94).
T14 construct: Bought chemokine
T14 sequence (looked up): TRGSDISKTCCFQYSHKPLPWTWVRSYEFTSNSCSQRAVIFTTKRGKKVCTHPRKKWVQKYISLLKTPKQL
The procedure:
as §1, §2, §3

For assay [15], the target named is T15, I-TAC (CXCL11) (UniProt O14625 22-94).
T15 construct: Bought chemokine; also called I-TACK
T15 sequence (looked up): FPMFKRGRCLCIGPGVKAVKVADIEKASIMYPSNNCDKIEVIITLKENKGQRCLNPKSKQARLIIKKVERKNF
As to the method:
as §1, §2, §3

For assay [16], the target named is T16, SDF-1β (CXCL12) (UniProt P48061 22-93).
T16 construct: Beta isoform of CXCL12; also called SDFβ
The procedure:
as §1, §2, §3

The target of assay [17] is T17, I-309 (CCL1) (UniProt P22362 23-96, limits assumed).
T17 construct: Bought chemokine
T17 sequence (looked up): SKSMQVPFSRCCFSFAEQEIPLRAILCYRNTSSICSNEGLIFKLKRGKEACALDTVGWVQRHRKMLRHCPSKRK
As to the method: as §1, §2, §3

Assay [18] deals with T18, Eotaxin 2 (CCL24) (UniProt O00175 27-104, limits assumed).
T18 construct: Bought chemokine
T18 sequence (looked up): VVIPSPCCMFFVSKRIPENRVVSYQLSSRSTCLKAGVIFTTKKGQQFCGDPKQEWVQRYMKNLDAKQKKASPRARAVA
The procedure: as §1, §2, §3

Assay [19] addresses T19, SDF-1α (CXCL12) (UniProt P48061-2 22-89).
T19 construct: Alpha isoform of CXCL12; also called SDFα
The procedure: as §1, §2, §3

T13 sequence (P13500 24-99 limits assumed): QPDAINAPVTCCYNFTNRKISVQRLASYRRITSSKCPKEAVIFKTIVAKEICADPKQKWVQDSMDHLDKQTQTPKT
T19 sequence (P48061 22-89 limits assumed): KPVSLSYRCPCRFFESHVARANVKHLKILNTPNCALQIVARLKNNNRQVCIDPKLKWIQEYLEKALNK
T4 sequence (Q99616 24-98 limits assumed): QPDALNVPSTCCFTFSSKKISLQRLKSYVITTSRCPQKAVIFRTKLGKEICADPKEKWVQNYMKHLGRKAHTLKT
T16 sequence (P48061 22-93 limits assumed): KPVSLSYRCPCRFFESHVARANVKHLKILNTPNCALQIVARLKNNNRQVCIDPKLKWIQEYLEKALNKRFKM
T3 sequence (P51671 24-97 limits assumed): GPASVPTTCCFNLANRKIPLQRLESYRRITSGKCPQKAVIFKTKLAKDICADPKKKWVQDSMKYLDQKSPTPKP

Consider WVFGHGMCK [Phage-Presented Peptide 25 (Ph-p25)], for which the “Relative Fluorescence Units (RFU)” value in assay [1], in assay [2], in [4], in assay [5], in [8] and in assay [11] was > 15000 RFU each time. In assay [13], the “Relative Fluorescence Units (RFU)” value was > 15000 RFU. Further, the binding result in assay [3], in assay [6], in assay [7], in [9], in assay [10] and in assay [12] was “binds” each time. The binding result in assay [14] is “binds”.
In the case of WVFGVHFCK [Phage-Presented Peptide 8.77 (Ph-p8.77)], the “Relative Fluorescence Units (RFU)” value in assay [2], in assay [4], in [15], in [5], in assay [11] and in [17] was > 15000 RFU each time. Further, the “Relative Fluorescence Units (RFU)” value in [14] is > 15000 RFU. The binding result in [6], in assay [7] and in [16] was “binds” throughout.
Take WVFGNAACK [Phage-Presented Peptide 8.7 (Ph-p8.7)]: the binding result in [2], in assay [3], in assay [15], in [6], in [7] and in assay [8] was “binds” throughout. For the same molecule, the binding result in assay [16], in assay [12], in assay [17] and in assay [14] was “binds” throughout. Further, the “Relative Fluorescence Units (RFU)” value in assay [4] and in [11] was > 15000 RFU throughout.
As for WVFGAAACK [Phage-Presented Peptide 8.6 (Ph-p8.6)], the binding result in assay [2], in assay [3], in [15], in [6], in [7] and in assay [8] was “binds” each time. Further, the binding result in assay [10], in assay [16], in [18], in assay [12], in [17] and in assay [14] was “binds” throughout. For the same molecule, in assay [19], the binding result is reported as “binds”. Also, the “Relative Fluorescence Units (RFU)” value in [4], in assay [11] and in assay [13] was > 15000 RFU each time.
With DYDYG [Phage-Presented Peptide 31 (Ph-p31)], the “Relative Fluorescence Units (RFU)” value in assay [2], in [3], in assay [4], in assay [15], in [5] and in [9] was > 15000 RFU in each case. In addition, the “Relative Fluorescence Units (RFU)” value in [11], in assay [18], in assay [13], in assay [17] and in assay [14] was > 15000 RFU in each case. Also, the binding result in assay [6], in [7], in assay [10], in [16], in assay [12] and in assay [19] was “binds” in each case.
DYDY [Phage-Presented Peptide 32 (Ph-p32)]: the “Relative Fluorescence Units (RFU)” value in [1], in assay [2], in assay [3], in assay [4], in [15] and in assay [5] was > 10000 RFU throughout. Besides, the “Relative Fluorescence Units (RFU)” value in assay [9], in [11], in assay [18], in assay [17] and in assay [14] was > 10000 RFU each time. Besides, the binding result in assay [6], in assay [7], in assay [10], in assay [16], in assay [12] and in assay [19] was “binds” in each case.
